For assay [1], the target named is recombinant CD89 (Fc-alpha receptor, FcαRI) with C-terminal His-tag (UniProt P24071 22-227). Briefly: SPR.
The target in assay [2] is receptor binding domain (RBD) of the SARS-CoV-2 spike protein with C-terminal 6xHis-tag (SARS-CoV-2, UniProt P0DTC2 319-541). In words: SPR. In general terms: In SPR one partner is held on a chip, and binding of the other changes the refractive index at the surface.

As usually defined, the Kd is the constant that tells how readily two partners part at equilibrium.

Sequence of recombinant CD89 (Fc-alpha receptor, FcαRI) with C-terminal His-tag (P24071 22-227): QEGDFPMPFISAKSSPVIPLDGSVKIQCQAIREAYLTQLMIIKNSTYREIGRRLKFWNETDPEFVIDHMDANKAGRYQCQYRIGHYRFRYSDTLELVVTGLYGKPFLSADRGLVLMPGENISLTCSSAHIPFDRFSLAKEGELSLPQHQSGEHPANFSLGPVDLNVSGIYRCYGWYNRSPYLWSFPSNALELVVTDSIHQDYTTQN

B1: COVA2-15 monomeric IgA2 (antibody)
chain 1: QVQLLESGGGLVQPGGSLRLSCAASGFTFSSYAMSWVRQAPGKGLEWASAISGSGGSTYYADSVEGRFTISRDNSKNTLYLQMNSLRAEDTAVYYCAKDTGYCGDDCYIKLIRGGPDYWGQGTLVTVSS
chain 2: DIVMTQSPLSLPVTLGQPASISCRSSQSLVYSDGNTFLNWFQQRPGQSPRRLIYQVSNRDSGVPDRFSGSGSGTDFTLKISRVEAEDVGVYYCMQGTHWPRTFGQGTKLEIK
Take B1: the Kd came out at 35.7 nM in assay [1] and 1.56 nM in assay [2].

(Values after article PMC10953500 (2024).)
